From publication PMC8213806 (Nature Communications, 2021)

Assays:
Assay in all cases: pull-down
Conditions in all cases: both partners purified
[1] = target: TcdB1 holotoxin L563G/I566G (Clostridioides difficile (VPI10463 …, UniProt P18177 1-2366, L563G | I566G))
TcdB1 holotoxin S567E = TcdB1 holotoxin S567E (Clostridioides difficile (VPI10463 …, UniProt P18177 1-2366, S567E))
TcdB1 holotoxin Y621A = TcdB1 holotoxin Y621A (Clostridioides difficile (VPI10463 …, UniProt P18177 1-2366, Y621A))
TcdB1 holotoxin Y603G = TcdB1 holotoxin Y603G (Clostridioides difficile (VPI10463 …, UniProt P18177 1-2366, Y603G))
TcdB1 holotoxin D1812G = TcdB1 holotoxin D1812G (Clostridioides difficile (VPI10463 …, UniProt P18177 1-2366, D1812G))
[2] = target: TcdB1 holotoxin V1816G/L1818G (Clostridioides difficile (VPI10463 …, UniProt P18177 1-2366, V1816G | L1818G))
[3] = target: TcdB1 holotoxin F1823G/I1825G/M1831G (Clostridioides difficile (VPI10463 …, UniProt P18177 1-2366, F1823G | I1825G | M1831G))
TcdB1 holotoxin N1758A = TcdB1 holotoxin N1758A (Clostridioides difficile (VPI10463 …, UniProt P18177 1-2366, N1758A))
TcdB1 holotoxin N1850A = TcdB1 holotoxin N1850A (Clostridioides difficile (VPI10463 …, UniProt P18177 1-2366, N1850A))

Measured: binding result

B1: Repeat1-Fc (CSPG4 Repeat1, residues 410–551, fused to the N-terminus of human IgG1 Fc) (Fc fusion)
chain: ELPEPCVPEPGLPPVFANFTQLLTISPLVVAEGGTAWLEWRHVQPTLDLMEAELRKSQVLFSVTRGARHGELELDIPGAQARKMFTLLDVVNRKARFIHDGSEDTSDQLVLEVSVTARVPMPSCLRRGQTYLLPIQVNPVND
notes: also called CSPG4 decoy; source: FreeStyle HEK 293 cells, secreted, purified (Ni-NTA); not shown: Fc (human IgG1), C-terminal, kept
binds: [1] | TcdB1 holotoxin S567E | TcdB1 holotoxin Y621A | TcdB1 holotoxin Y603G | TcdB1 holotoxin D1812G | [2] | [3] | TcdB1 holotoxin N1758A | TcdB1 holotoxin N1850A
